# Test results reported in PMC6282620, “Structural and biochemical characterization of Plasmodium falciparum Hsp70‐x reveals functional versatility of its C‐terminal EEVN motif” (Proteins, 2018).
# Molecular target: PfHsp70‐x C‐terminal truncated version with a missing EEVN motif (Plasmodium falciparum)
# Test: SPR; PfHsp70‐x or PfHsp70‐xT immobilised on ProteOn GLC chips, peptides as analytes at 1.25-20 nM, 25°C, PBS‐Tween pH 7.4, with 2 mM ADP
row,Binder,Kd [nM]
1,NRLLTG [peptide NRLLTG],170
2,ANNNMYRR [peptide ANNNMYRR],443000
3,NRNNTG [peptide NRNNTG],1.69
4,ALLLMYRR [peptide ALLLMYRR],313000

# Molecular target: Plasmodium falciparum Hsp70‐x (full length) (Plasmodium falciparum)
# Test: as above
row,Binder,Kd [nM]
1,NRLLTG [peptide NRLLTG],620
2,ANNNMYRR [peptide ANNNMYRR],2.21
3,NRNNTG [peptide NRNNTG],4.31
4,ALLLMYRR [peptide ALLLMYRR],2820

# Molecular target: Plasmodium falciparum Hsp70-x (full length) (Plasmodium falciparum)
# Test: SPR; PfHsp70-x or PfHsp70-xT immobilised on ProteOn GLC chips as ligands; peptides as analytes at 1.25-20 nM, 50 uL/min; 25 °C; PBS-Tween; with 2 mM ATP
Binder,koff [s⁻¹],kon [M⁻¹ s⁻¹]
NRLLTG [peptide NRLLTG],1.01e-05,1.21
ANNNMYRR [peptide ANNNMYRR],0.00567,7240
NRNNTG [peptide NRNNTG],1.01e-06,7.33
ALLLMYRR [peptide ALLLMYRR],1.6e-06,

# Molecular target: PfHsp70-x C-terminal truncated version with a missing EEVN motif (Plasmodium falciparum)
# Test: as above
Binder,koff [s⁻¹],kon [M⁻¹ s⁻¹]
NRLLTG [peptide NRLLTG],0.000161,31.8
NRNNTG [peptide NRNNTG],1.01e-05,9.37

# Molecular target: Plasmodium falciparum Hsp70-x (full length) (Plasmodium falciparum)
# Test: SPR; PfHsp70-x or PfHsp70-xT immobilised on ProteOn GLC chips as ligands; peptides as analytes at 1.25-20 nM, 50 uL/min; 25 °C; PBS-Tween; no nucleotide
Binder,koff [s⁻¹],kon [M⁻¹ s⁻¹]
NRLLTG [peptide NRLLTG],9.97e-06,3.86
ANNNMYRR [peptide ANNNMYRR],0.000732,331000
NRNNTG [peptide NRNNTG],9.49e-07,2.43
ALLLMYRR [peptide ALLLMYRR],1.28e-06,

# Molecular target: PfHsp70-x C-terminal truncated version with a missing EEVN motif (Plasmodium falciparum)
# Test: as above
Binder,koff [s⁻¹],kon [M⁻¹ s⁻¹]
NRLLTG [peptide NRLLTG],8.67e-06,3.15
ANNNMYRR [peptide ANNNMYRR],1.04e-05,
NRNNTG [peptide NRNNTG],2.79e-08,3.52
ALLLMYRR [peptide ALLLMYRR],1.04e-05,

# Molecular target: PfHsp70‐x C‐terminal truncated version with a missing EEVN motif (Plasmodium falciparum)
# Test: SPR; PfHsp70‐x or PfHsp70‐xT immobilised on ProteOn GLC chips, peptides as analytes at 1.25-20 nM, 25°C, PBS‐Tween pH 7.4, no nucleotide
row,Binder,Kd [nM]
1,NRLLTG [peptide NRLLTG],280
2,ANNNMYRR [peptide ANNNMYRR],626000
3,NRNNTG [peptide NRNNTG],7.92
4,ALLLMYRR [peptide ALLLMYRR],542000

# Molecular target: Plasmodium falciparum Hsp70‐x (full length) (Plasmodium falciparum)
# Test: as above
row,Binder,Kd [nM]
1,NRLLTG [peptide NRLLTG],250
2,ANNNMYRR [peptide ANNNMYRR],2.21
3,NRNNTG [peptide NRNNTG],6.91
4,ALLLMYRR [peptide ALLLMYRR],1470

# Molecular target: PfHsp70‐x C‐terminal truncated version with a missing EEVN motif (Plasmodium falciparum)
# Test: SPR; PfHsp70‐x or PfHsp70‐xT immobilised on ProteOn GLC chips, peptides as analytes at 1.25-20 nM, 25°C, PBS‐Tween pH 7.4, with 2 mM ATP
row,Binder,Kd [nM]
1,NRLLTG [peptide NRLLTG],1800
2,NRNNTG [peptide NRNNTG],107

# Molecular target: Plasmodium falciparum Hsp70‐x (full length) (Plasmodium falciparum)
# Test: as above
row,Binder,Kd [nM]
1,NRLLTG [peptide NRLLTG],1700
2,ANNNMYRR [peptide ANNNMYRR],783
3,NRNNTG [peptide NRNNTG],137
4,ALLLMYRR [peptide ALLLMYRR],60600

# Molecular target: Plasmodium falciparum Hsp70-x (full length) (Plasmodium falciparum)
# Test: SPR; PfHsp70-x or PfHsp70-xT immobilised on ProteOn GLC chips as ligands; peptides as analytes at 1.25-20 nM, 50 uL/min; 25 °C; PBS-Tween; with 2 mM ADP
Binder,koff [s⁻¹],kon [M⁻¹ s⁻¹]
NRLLTG [peptide NRLLTG],1.01e-05,1.62
ANNNMYRR [peptide ANNNMYRR],0.00386,1.74e+06
NRNNTG [peptide NRNNTG],1.03e-07,2.55
ALLLMYRR [peptide ALLLMYRR],0.00282,

# Molecular target: PfHsp70-x C-terminal truncated version with a missing EEVN motif (Plasmodium falciparum)
# Test: as above
Binder,koff [s⁻¹],kon [M⁻¹ s⁻¹]
NRLLTG [peptide NRLLTG],1e-05,6
ANNNMYRR [peptide ANNNMYRR],1.04e-05,
NRNNTG [peptide NRNNTG],1.01e-08,5.96
ALLLMYRR [peptide ALLLMYRR],1.04e-05,
